Source: paper PMC10502012, “Molecular basis of TASL recruitment by the peptide/histidine transporter 1, PHT1” (Nature Communications, 2023)
Where a chain is given by its changes, count along the chain named.

B1: 24 [Sybody 24] (VHH)
VHH: QVQLVESGGGSVQAGGSLRLSCAASGAIERIWYLGWFRQAPGKEREGVAALITFTGHTYYADSVKGRFTVSLDNAKNTVYLQMNSLKPEDTALYYCAAAYDGWFSPLTTRRYRYWGQGTQVTVSA
B2: 111 (VHH)
VHH: QVQLVESGGGLVQAGGSLRLSCAASGFPVYSSWMRWYRQAPGKEREWVAAINSHGDYTEYADSVKGRFTISRDNAKNTVYLQMNSLKPEDTAVYSCNVKDHGYYMKHYDYWGQGTQVTVSA
B3: 121 (VHH)
VHH: B2 VHH with Y30E, S31Q, H54W, D56E, S95Y, H101Q, Y104E, M105H, K106Q, H107R
B4: 80 (VHH)
VHH: QVQLVESGGGSVQAGGSLRLSCAASGSISSITYLGWFRQAPGKEREGVAALFTWWGWTYYADSVKGRFTVSLDNAKNTVYLQMNSLKPEDTALYYCAAASEGMYWPLTKNHYSYWGQGTQVTVSA
B5: 30 [Sybody 30] (VHH)
VHH: QVQLVESGGGLVQAGGSLRLSCAASGFPVKSRRMYWYRQARGKEREWVAAIYSWGATTVYADSVKGRFTISRDNAKNTVYLQMNSLKPEDTAIYYCNVKDWGSWYQYYDYWGQGTQVTVSA
B6: 6 [Sybody 6] (VHH)
VHH: QVQLVESGGGLVQAGGSLRLSCAASGFPVYATWMYWYRQAPGKEREWVAAISSTGWSTYYADSVKGRFTISRDNAKNTVYLQMNSLKPEDTAVYYCNVKDVGFWWDQYDYWGQGTQVTVSA
B7: 134 (VHH)
VHH: B6 VHH with A31Q, W33Y, S52N, W56Y, S57F, Y59R, V101L, F103W, W105S, D106E
B8: 23 [Sybody 23] (VHH)
VHH: QVQLVESGGGSAQAGGSLRLSCAASGNIAHIYYLGWFRQAPGKEREGVAALMTFTGWTYYADSVKGRFTVSLDNAKNTVYLQMNSLKPEDTALYYCAAATHGNWNPLQSDRYQYWGQGTQVTVSA
B9: 3 [Sybody 3] (VHH)
VHH: QVQLVESGGGLVQAGGSLRLSCAASGFPVWAAYMFWYRQAPGKEREWVAAIGSTGWYTRYADSVKGRFTISRDNAKNTVYLQMNSLKPEDTAVYYCHVKDAGWNWWAYDYWGQGTQVTVSA
B10: 140 (VHH)
VHH: B9 VHH with A32T, F35Y, Y57F, R59V, H97N, A101Y, N104F, W105E, W106Y, A107R
B11: 101 (VHH)
VHH: B9 VHH with A32T, F35Y, Y57F, R59V, H97N, A101R, N104Q, W105T, W106A, A107Q
B12: 88 (VHH)
VHH: B9 VHH with A31H, A32S, F35Y, R59T, H97N, A101Q, N104I, W105H, W106K, A107Q
B13: 44 [Sybody 44] (VHH)
VHH: B9 VHH with W30D, A32T, Y33S, F35Y, G52N, R59E, H97N, A101Y, N104Y, W105Y
B14: 55 (VHH)
VHH: QVQLVESGGGLVQAGGSLRLSCAASGFPVAARWMRWYRQAPGKEREWVAAINSFGDYTEYADSVKGRFTISRDNAKNTVYLQMNSLKPEDTAVYYCNVKDYGSQWWAYDYWGQGTQVTVSA
B15: 58 (VHH)
VHH: B14 VHH with A30W, A31T, F54Y, K99R, Y101N, S103A, Q104Y, W106H, A107Y
B16: 57 (VHH)
VHH: B14 VHH with A30K, A31Q, R32K, F54N, K99R, S103D, W105L, W106F, A107E
B17: 104 (VHH)
VHH: B14 VHH with A30W, A31N, R32S, F54Y, Y57H, S103E, Q104W, W106N, A107N
B18: 105 (VHH)
VHH: B14 VHH with A30Y, A31I, R32K, N52S, F54N, D56E, S103H, Q104T, W105Q, A107R
B19: 109 (VHH)
VHH: B14 VHH with A30G, A31H, R32K, F54H, D56E, Y57F, S103W, Q104T, W105A
B20: 139 (VHH)
VHH: QVQLVESGGGSVQAGGSLRLSCAASGHIRWIKYLGWFRQAPGKEREGVAALYTYEGQTYYADSVKGRFTVSLDNAKNTVYLQMNSLKPEDTALYYCAAAYFGAFYPLSYDAYYYWGQGTQVTVSA
B21: 66 (VHH)
VHH: QVQLVESGGGLVQAGGSLRLSCAASGFPVDTSYMYWYRQAPGKEREWVAAIWSWGQWTYYADSVKGRFTISRDNAKNTVYLQMNSLKPEDTAVYYCAVYVGQYYIGQGTQVTVSA
B22: 94 (VHH)
VHH: QVQLVESGGGLVQAGGSLRLSCAASGFPVYKASMYWYRQAPGKEREWVAAINSKGWWTEYADSVKGRFTISRDNAKNTVYLQMNSLKPEDTAVYYCNVKDYGYEQLWYDYWGQGTQVTVSA
B23: 2 [Sybody 2] (VHH)
VHH: QVQLVESGGGLVQAGGSLRLSCAASGFPVNTRTMHWYRQAPGKEREWVAAIYSSGQNTFYADSVKGRFTISRDNAKNTVYLQMNSLKPEDTAVYYCNVKDWGNIWEYDYWGQGTQVTVSA
B24: 116 (VHH)
VHH: B23 VHH with L11P
B25: 25 [Sybody 25] (VHH)
VHH: QVQLVESGGGSVQAGGSLRLSCAASGNIWDIRYLGWFRQAPGKEREGVAALETQYGYTYYADSVKGRFTVSLDNAKNTVYLQMNSLKPEDTALYYCAAADIGYYTPLIHVGWYSYWGQGTQVTVSA
B26: 19 [Sybody 19] (VHH)
VHH: QVQLVESGGGSVQAGGSLRLSCAASGNIHAINYLGWFRQAPGKEREGVAALDTWVGYTYYADSVKGRFTVSLDNAKNTVYLQMNSLKPEDTALYYCAAAEWGWQGPLKMRAYEYWGQGTQVTVSA
B27: 1 [Sybody 1] (VHH)
VHH: QVQLVESGGGLVQAGGSLRLSCAASGFPVYSRHMYWYRQAPGKEREWVAAIASQGMKTWYADSVKGRFTISRDNAKNTVYLQMNSLKPEDTAVYYCNVKDTGQWWGLYDYWGQGTQVTVSA
B28: 31 [Sybody 31] (VHH)
VHH: QVQLVESGGGLVQAGGSLRLSCAASGFPVSQNWMWWYRQAPGKEREWVAAISSKGQTTHYADSVKGRFTISRDNAKNTVYLQMNSLKPEDTAVYYCNVKDWGAYWYSYDYWGQGTQVTVSA
B29: 100 (VHH)
VHH: QVQLVESGGGLVQAGGSLRLSCAASGFPVAQRVMHWYRQAPGKEREWVAAIHSAGAQTFYADSVKGRFTISRDNAKNTVYLQMNSLKPEDTAVYYCNVKDDGKYYWLYDYWGQGTQVTVSA
B30: 48 [Sybody 48] (VHH)
VHH: QVQLVESGGGLVQAGGSLRLSCAASGFPVRWHYMYWYRQAPGKEREWVAAISSHGTYTYYADSVKGRFTISRDNAKNTVYLQMNSLKPEDTAVYYCSVKDIGRWFSKYDYWGQGTQVTVSA
B31: 87 (VHH)
VHH: QVQLVESGGGLVQAGGSLRLSCAASGFPVVHLSMAWYRQAPGKEREWVAAINSFGDHTHYADSVKGRFTISRDNAKNTVYLQMNSLKPEDTAVYYCNVKDSGWFWTQYDYWGQGTQVTVSA
B32: 89 (VHH)
VHH: QVQLVESGGGLVQAGGSLRLSCAASGFSVNYSYMYWYRQAPGKEREWVAAISSWGWYTVYADSVKGRFTISRDNAKNTVYLQMNSLKPEDTAVYYCNVKDRGNDDSSYDYWGQGTQVTVSA
B33: 20 [Sybody 20] (VHH)
VHH: QVQLVESGGGSVQAGGSLRLSCAASGNIWTIRYLGWFRQAPGKEREGVAALDTASGSTYYADSVKGRFTVSLDNAKNTVYLQMNSLKPEDTALYYCAAAWWGYTVPLMWQHYYYWGQGTQVTVSA

Target: chicken PHT1 (purified, wild type) (chicken)
Sequence (chain, as listed by the source): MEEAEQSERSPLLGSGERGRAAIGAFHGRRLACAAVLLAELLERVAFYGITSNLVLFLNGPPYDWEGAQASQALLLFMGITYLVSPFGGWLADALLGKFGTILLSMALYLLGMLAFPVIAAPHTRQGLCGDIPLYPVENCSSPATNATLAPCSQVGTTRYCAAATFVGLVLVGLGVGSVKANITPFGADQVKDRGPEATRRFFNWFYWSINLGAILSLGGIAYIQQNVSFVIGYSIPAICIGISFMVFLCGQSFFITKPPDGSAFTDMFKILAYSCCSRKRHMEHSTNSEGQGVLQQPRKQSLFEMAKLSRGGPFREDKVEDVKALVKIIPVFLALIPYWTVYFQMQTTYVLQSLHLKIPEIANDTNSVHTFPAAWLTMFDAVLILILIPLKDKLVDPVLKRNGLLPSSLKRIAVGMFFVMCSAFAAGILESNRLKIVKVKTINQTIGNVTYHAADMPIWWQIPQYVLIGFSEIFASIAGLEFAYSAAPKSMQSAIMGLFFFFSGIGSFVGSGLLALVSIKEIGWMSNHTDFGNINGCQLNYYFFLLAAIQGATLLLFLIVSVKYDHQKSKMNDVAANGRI

Binding result, binds:
B1, B2, B3, B4, B5, B6, B7, B8, B9, B10, B11, B12, B13, B14, B15, B16, B17, B18, B19, B20, B21, B22, B23, B24, B25, B26, B27, B28, B29, B30, B31, B32, B33
